To fix the notation:
B1: S1V2-17 recombinant human IgG1 (antibody, V domains shown)
VH: QVKLVQSGAEVKKPGASVKVSCKVSGYTLSELSIHWVRQVPGKGLESMGGFDPEDDGAIYAESFQGRVTMTEDTSTDTSFMELHSLRSEDTAVYYCVTWLVGTTVAAYWGQGTLVTVS
VL: MTQTPFSLPVTPGEPASISCRSSQSLLYSNGYNHLDWYLQKPGQSPQLLIYLGSYRASGVPDRFSGSGSGTDFTLKISRVEADDVGVYYCMQALQAPRTFGQGTKVEIK
B2: S1V2-65 recombinant human IgG1 (antibody, V domains shown)
VH: EVQLVQSGAEVKKPGETLKISCKGSGYSFTNYWIGWVRQMPGKGLECMGIIDPSDSETRYSPSFQGQVTISADKSTNTAFLQWSTVKASDTAIYYCARLGYGDSPPFDFWGQGAGVTVS
VL: MTQSPLSLPVTPGESASISCRSSQSLLYSNGYNHLDWYVQKPGQPPQLLIFLGSTRASGVSDRVSGSGSGTDFTLQISRVEAEDVGVYYCMQALETPYTFGQGTKLEVK
B3: S1V2-60 recombinant human IgG1 (antibody, V domains shown)
VH: EVQLVQSGAEVSEPGKSLKISCKGSAYSFINYWIGWVRQMPGKGLECMGIIDPSDSETRYNPSFEGHVLISADTSINTAYLQWSSLRASDTAMYYCVRLGYGDSPPFDSWGQGTLVTVS
VL: B1 VL with T4S, L39Q, S45P, Y51F, Y55R, D83E, A96D, R98Y, V106L
B4: S8V1-157 recombinant human IgG1 (antibody, V domains shown)
VH: EVQLVQSGAEVKKPGASVKVSCKVSGYRLTALSMHWVRQAPGKGLEWMGGFDPEEDETIYAQNFQGRVTLTEDTSTDTVYMELSSLRSEDTGVYYCATLMGANPFDYWGQGTLIIVSG
VL: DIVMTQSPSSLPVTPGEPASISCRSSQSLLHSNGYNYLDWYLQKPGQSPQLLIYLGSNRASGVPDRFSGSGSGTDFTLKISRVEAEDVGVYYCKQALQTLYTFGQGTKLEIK
B5: FI6v3 recombinant human IgG (antibody, V domains shown)
VH: QVQLVESGGGVVQPGRSLRLSCAASGFTFSTYAMHWVRQAPGKGLEWVAVISYDANYKYYADSVKGRFTISRDNSKNTLYLQMNSLRAEDTAVYYCAKDSQLRSLLYFEWLSQGYFDYWGQGTLVTVSS
VL: not shown

Substitutions are numbered along the chain they refer to. Where “and” joins values, the source holds several entries; their conditions need not be identical. Identical values can stand only once.

Broadly, the Kd is the constant that tells how readily two partners part at equilibrium. Read a low Kd as higher affinity.

In the first assay the target is pre-pandemic H5 HAs (soluble HA ectodomains, ELISA) (influenza A virus). The assay is described as follows: ELISA. On the technique in general: In an ELISA, binding on a coated surface is turned into a signal by an enzyme label.
On to B1, for which the Kd was found to be 0.14 nM.
B2 registered a Kd of 0.1 nM. This Kd and that of the molecule before are within 1.5-fold of each other.
B3 showed a Kd of 0.1 nM.
On to B4, for which the Kd was less than 0.1 nM.
For the molecule B5, the Kd amounted to 0.44 nM.

In the next assay the target is specific HAs not engaged in ELISA (soluble HA ectodomains) (influenza virus). In words: ELISA.
B1 returned a dissociation constant Kd greater than 100 nM.
For the molecule B2, the Kd was greater than 100 nM.
Take B3: the Kd is greater than 100 nM.
B4 showed a Kd greater than 100 nM.

The next assay deals with all seasonal H3s (1968–2020) assayed (soluble HA ectodomains, ELISA) (influenza A virus). The assay is described as follows: ELISA.
Take B2: the Kd is 0.16 nM and 0.21 nM and 0.25 nM.

Another assay deals with pandemic H2 HA (soluble HA ectodomain, ELISA) (influenza A virus). In words: ELISA.
In the case of B1, the Kd amounted to 6.5 nM.
B2: the Kd was 10 nM.
The molecule B3 registered a Kd of 8.8 nM.
On to B4, for which the Kd was found to be 2.5 nM.
Regarding B5, binding was put at a Kd of 0.36 nM.
